The RNAGym collection of RNA variant scans (doi:10.1073/pnas.2313332121)
Fewer inactive variants are shown than the library holds.

B1: TPR 5TU (parent)
chain: GGAUCUUCUCGAUCUAACAAAAAAGACAAAUCUGCCACAAAGCUUGAGAGCAUCUUCGGAUGCAGAGGCGGCAGCCUUCGGUGGCGCGAUAGCGCCAACGUUCUCAACUAUGACACGCAAAACGCGUGCUCCGUUGAAUGGAGUUUAUCAUG

Variants of: B1
Test: polymerase ribozyme fitness, log enrichment relative to wild type (log ratio); higher = more active; in vitro selection for triplet polymerase activity
Procedure, shortened: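 Mutant libraries for each subunit of a heterodimeric triplet polymerase ribozyme were made by PCR and then transcribed. Each library underwent one round of in vitro selection in triplicate: annealing with a biotinylated primer, the partner subunit and triplets, frozen incubation at −7 °C, gel excision of extended constructs, streptavidin-bead capture and RT-PCR. Input and output libraries were Illumina-sequenced, and only genotypes with ≥10 input reads and ≥1 read per output were kept. Fitness is the logarithm, base 2, of genotype enrichment over wild-type enrichment, computed from inverse-variance-weighted replicate averages.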

Row | Variant | polymerase ribozyme fitness (log ratio)
1 | A21G C132G | -3.9
2 | C5G A49G U61A C85G | ≤ -4.2
3 | G11U C18G C54A G88A C118A | ≤ -4.2
4 | C38U A49C A66G A138U U144C | ≤ -4.2
5 | A21U A23U A24C C54U G81A C85U A147C | ≤ -4.2
6 | U33C | -1.48
7 | C93G A142G | -3.81
8 | U45G C75G C87A A120C G141C | ≤ -4.2
9 | C63U C85U | -0.275
10 | C51U C103A A121C | -1
11 | U6G A73U G81C A98C C99U U144C | -3.62
12 | G34C G58A G68C G84A U90G A120G C125G | ≤ -4.2
13 | U31G A39C G50A G92U G117A G140U U145A A147G | ≤ -4.2
14 | A21C U56G G59A C72U A122U | -0.846
15 | A21C G50C C63U C93G | -1.78
16 | C54G G83A C96U A110G C132U A142C | ≤ -4.2
17 | C85A C116G | -0.2
18 | C76U C93U A97U | -0.802
19 | A12G C85G | -1.96
20 | A26G A28U G42C G59C C96G C105G C116U | -4.04
21 | C5A G11C C32G G92U C99A C125G G136U G141U | ≤ -4.2

Row | Variant | polymerase ribozyme fitness (log ratio)
22 | A26U C35A U104G A150C | ≤ -4.2
23 | C27U U44A G46A C54A C116G A147U | ≤ -4.2
24 | C14U A60U C96G | ≤ -4.2
25 | C8U C18A A20C A23C G62C A89G G136U | ≤ -4.2
26 | A49G U55G G88A U139C U145A | ≤ -4.2
27 | A19U A23C A91U | ≤ -4.2
28 | A16C A41C C57G G59C U135A | -3.85
29 | A3G C18U G50C C87G A97G C99U U146G | ≤ -4.2
30 | C36U C87U | -1.6
31 | C38G C57A A115C U144G | -1.02
32 | U13G A137U | ≤ -4.2
33 | A17G C32A A49C G83U A107G G143U | ≤ -4.2
34 | C105U | 0.527
35 | A16G G86U | -2.72
36 | C14G G141A | -1.87
37 | G88A U101G U102G A138U U139G | ≤ -4.2
38 | A73U U82A C95U | -1.04
39 | G11U C18U G84U | -3.2
40 | A91C A106G | ≤ -4.2
41 | U9C C10G | -4.15
42 | A17G C51U A106G A120C A122U | -1.36

Row | Variant | polymerase ribozyme fitness (log ratio)
43 | A12G A16U C54U A73G G83U G84C C95G G140C | ≤ -4.2
44 | G42U G50A C118U A122C | ≤ -4.2
45 | U90G C116G | -3.78
46 | A28G A39U U53A G71A C93A | ≤ -4.2
47 | C51G U55G C108A A119U G124A G141A U146A | ≤ -4.2
48 | A29C C57G G71A U90C | ≤ -4.2
49 | A49U C51U A147C | -0.373
50 | A24U G86C | -2.81
51 | U6G A20U C43U A47U G59A G65C A73C G88U C96A A142G | ≤ -4.2
52 | U7A U45C G50U G83A A89U G94C A115U G141A | ≤ -4.2
53 | A23C U44G A47U A91U A122U | ≤ -4.2
54 | A22U A150C | -2.85
55 | A60U C85G A89U | ≤ -4.2
56 | A12G G70A C118U | -3.56
57 | A20U A21G C51U G133C | ≤ -4.2
58 | C5U C8G A12G A19U U55G C87A C96G A147C | ≤ -4.2
59 | U7A A26U C32G A49C G50A G83U | ≤ -4.2
60 | A28U A39U | ≤ -4.2
61 | C105A U135C | -2.39
62 | A40C A98G U146G G152C | ≤ -4.2
63 | C96A C118U | -1.8

Row | Variant | polymerase ribozyme fitness (log ratio)
64 | U7A U9C A20G U53G C87U A98U | -3.99
65 | A52C A66C A91C A115G | ≤ -4.2
66 | C27U C57U G94A C95A G143A | ≤ -4.2
67 | U13C U56A A60G C95U C105G U109G C132A U145G | ≤ -4.2
68 | C85A C129U | -0.397
69 | A19G U31G U44A G80A C123G G141C | ≤ -4.2
70 | C38U U53A | -1.72
71 | U56A A73U C87G C99G | ≤ -4.2
72 | A20G C85A | -2.13
73 | C38A G83U C96G U144A | -0.619
74 | A60U C85U | -1.46
75 | A17U U33A U45A C57G G70C C87A A98U | ≤ -4.2
76 | U7C A23G A49U U56G G84U G86U A137U | ≤ -4.2
77 | A17C G74U C85A A91G G92C C93G C118A A120C | ≤ -4.2
78 | A16C C27G U53A C54A G74A G94A | ≤ -4.2
79 | G58C A89U C95A G126U | -0.892
80 | C87A C125U | -4.14
81 | A16G G34U A52U A60G C72G G88U A91U G140C | ≤ -4.2
82 | U44A G68U G92U A98G C99G | ≤ -4.2
83 | A52U A89U C96A | -2.98
